Several values for one entry are separate records, joined by “and”; a condition that tells them apart may be missing. Equal values may be shown once.
Assays:
[1] = target: chloride intracellular channel 1, CLIC1^C24 (C59A, C89A, C178A, C191A, C223A), Alexa Fluor 647-labelled (UniProt O00299); assay: single-molecule TIRF colocalisation and photobleaching step counting; AF647-labelled CLIC (2 μM) with AF488-labelled sHsp (4 μM) in 50 mM phosphate buffer pH 7.4 at 42°C for up to 7 h; aliquots cross-linked with BS3 (250 μM), diluted to 1-20 nM; His-tagged CLIC held through a biotinylated anti-6X His antibody on a NeutrAvidin coverslip; imaged at 20°C; chance colocalisation subtracted
[2] = target: αB-crystallin with an additional C-terminal cysteine (αB-c_(C176)), Alexa Fluor 488-labelled (human) (UniProt P02511); assay: single-molecule TIRF colocalisation and photobleaching step counting; AF647-labelled client (2 μM) with AF488-labelled sHsp or SSB (4 μM) in 50 mM phosphate buffer pH 7.4 at 42°C for up to 7 h; aliquots cross-linked with BS3 (250 μM), diluted to 1-20 nM; biotinylated FLUC or rhodanese held on a NeutrAvidin coverslip; imaged at 20°C; chance colocalisation subtracted
[3] = target: firefly luciferase FLUC^(ΔCys, K141C, K491C), biotinylated, Alexa Fluor 647-labelled (firefly) [luciferase: P08659]; assay: as above
[4] = target: rhodanese^(K135C, K174C) with AviTag, biotinylated, Alexa Fluor 647-labelled (UniProt P00586); assay: as above

αB-crystallin with an additional C-terminal cysteine (αB-c_(C176)), Alexa Fluor 488-labelled (from UniProt P02511 1-175) (natural protein)
percent of client molecules colocalised with the sHsp (within 0.3 h) [1]: 20%
stoichiometry N (subunits/oligomer) [2]: 6
FLUC subunits in complexes with αB-c [3]: 8 subunits
colocalised αB-c subunits per complex (1 h) (subunits/complex) [3]: 13
percent of client molecules colocalised with the sHsp (within 0.3 h) [3]: 40%

single-stranded binding protein (SSB), fluorescently labelled, non-chaperone control (from UniProt P0AGE0 1-178) (natural protein)
percent colocalised [4]: < 3%

Hsp27 cysteine mutant (Hsp27_(C137S,C207)), Alexa Fluor 488-labelled (from UniProt P04792 1-205) (natural protein)
percent of client molecules colocalised with the sHsp (first hour) [1]: 15%
stoichiometry N ([1]; scale: Hsp27:CLIC): 0.29 and 0.69
percent of client molecules colocalised with the sHsp (within 0.3 h) [4]: 40%
FLUC subunits in complexes with Hsp27 (1 h) (FLUC subunits/complex) [3]: 5
FLUC subunits per molecule, in and out of complexes with Hsp27 (0 h) [3]: 2 subunits
median FLUC subunits in complexes with Hsp27 (0.6 h) (subunits per complex) [3]: 20
percent of client molecules colocalised with the sHsp (after 1 h) [3]: 17%
percent of client molecules colocalised with the sHsp (within 0.6 h) [3]: 35%
stoichiometry N ([3]; scale: Hsp27:FLUC): 0.68 and 1.75 and 1.24

From article PMC12203938
